Measurements reported in patent publication US20250042970A1 (AURINIA PHARMACEUTICALS, published 2025).
Substitutions are numbered along the chain they refer to. Where two headings read alike, the source gives them in different places. Each block holds one binder with its values, some of them ahead of it.

Columns and labels:
Variant BAv9-1-Ig = molecular target: T1, Variant BAv9-1-Ig (human, UniProt P01859-1 99-326 = IgG part); assay: BIACORE SPR
T1 construct: domain: Fc; also called Variant 9-1-Ig; BAv9-1-pIg18
T1 sequence (P01859 other isoform, or with tags, fused parts or gaps mutant limits assumed): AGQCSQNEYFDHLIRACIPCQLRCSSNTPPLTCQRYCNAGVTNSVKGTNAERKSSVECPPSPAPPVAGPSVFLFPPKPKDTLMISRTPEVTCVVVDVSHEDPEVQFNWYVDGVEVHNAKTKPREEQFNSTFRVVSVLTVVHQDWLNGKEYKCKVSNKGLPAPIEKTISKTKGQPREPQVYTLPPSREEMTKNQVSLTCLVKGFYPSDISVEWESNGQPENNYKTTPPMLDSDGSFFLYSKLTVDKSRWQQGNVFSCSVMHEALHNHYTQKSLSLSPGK
From the text: (§1) The standard kinetic assay measures binding kinetics of trimeric ligand (e.g., human BAFF, cynomolgus monkey APRIL, mouse BAFF, or mouse APRIL) coated on sensor chips and dimeric analytes (e.g., variant BCMA-Ig fusion proteins) in the mobile phase. […] For human BAFF, cynomolgus monkey APRIL, and mouse APRIL measurements, mouse monoclonal antibody (IgG1) anti-FLAG M2 (Sigma Aldrich, Cat. No. F1804) was immobilized on CM3 sensor chips (GE Healthcare, Cat. No. BR-1005-41) according to the manufacturer's protocol. Antibody was diluted to 30 μg/ml in immobilization buffer (10 mM pH 5±0.20; GE Healthcare; GE Healthcare, Catalog No. BR-1003-51). […] Unreacted sites were quenched with 35 μl of 1M ethanolamine-HCl, pH 8.5 (GE Healthcare, GE Healthcare, Cat. No. BR-1000-50). This procedure typically yielded 3,000-4,000 response units (RU) of coupled antibody.
(§2) The fusion polypeptides were diluted in HBS-EP buffer and flowed over ligand-coated sensor chips. The variant BCMA-Ig and surrogate control fusion proteins were injected at three concentrations (1.5 nM, 15 nM, and 150 nM at 30 μl/min for 2 minutes per association phase) in a single binding cycle, followed by a 20 minute incubation with HBS-EP buffer containing no protein at the same flow rate. A similar protocol was followed for Z-TACI-Ig, except that the injections were at 4.5 nM, 45 nM, and 450 nM.
(§3) The analyses described above were performed on protein preparations of representative variant BCMA ECD-Ig fusion polypeptides, as well as the Z-TACI-Ig and [S40G]huBCMA ECD-Ig control fusion polypeptides, and the data is presented in Table 1.

Variant BAv11-6-Ig = molecular target: T2, Variant BAv11-6-Ig (human, UniProt P01859-1 99-326 = IgG part); assay: BIACORE SPR
T2 construct: domain: Fc; also called Variant 11-6-Ig; BAv11-6-PIg18
T2 sequence (P01859 other isoform, or with tags, fused parts or gaps mutant limits assumed): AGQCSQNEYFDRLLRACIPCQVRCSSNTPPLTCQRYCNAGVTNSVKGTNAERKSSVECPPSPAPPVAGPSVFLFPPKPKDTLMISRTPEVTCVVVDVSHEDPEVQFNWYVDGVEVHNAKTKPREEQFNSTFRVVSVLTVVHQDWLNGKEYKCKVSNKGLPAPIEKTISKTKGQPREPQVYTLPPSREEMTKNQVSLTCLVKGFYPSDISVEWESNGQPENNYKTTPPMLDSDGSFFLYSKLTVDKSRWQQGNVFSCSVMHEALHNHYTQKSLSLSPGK
From the text: as §1, §2, §3

Variant BAv1-12-Ig = molecular target: T3, Variant BAv1-12-Ig (human, UniProt P01859-1 99-326 = IgG part); assay: BIACORE SPR
T3 construct: domain: Fc; also called Variant 1-12-Ig
T3 sequence (P01859 other isoform, or with tags, fused parts or gaps mutant limits assumed): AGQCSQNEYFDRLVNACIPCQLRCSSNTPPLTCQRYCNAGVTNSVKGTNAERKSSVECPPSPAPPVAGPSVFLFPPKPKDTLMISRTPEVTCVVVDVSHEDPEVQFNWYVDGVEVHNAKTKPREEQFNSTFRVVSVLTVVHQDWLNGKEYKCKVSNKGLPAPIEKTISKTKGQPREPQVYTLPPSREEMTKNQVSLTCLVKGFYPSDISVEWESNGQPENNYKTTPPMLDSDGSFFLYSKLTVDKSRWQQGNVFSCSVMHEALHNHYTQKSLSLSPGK
From the text: as §1, §2, §3

Variant BAv3-10-Ig = molecular target: T4, Variant BAv3-10-Ig (human, UniProt P01859-1 99-326 = IgG part); assay: BIACORE SPR
T4 construct: domain: Fc; also called Variant 3-10-Ig; BAv3-10-PIg18
T4 sequence (P01859 other isoform, or with tags, fused parts or gaps mutant limits assumed): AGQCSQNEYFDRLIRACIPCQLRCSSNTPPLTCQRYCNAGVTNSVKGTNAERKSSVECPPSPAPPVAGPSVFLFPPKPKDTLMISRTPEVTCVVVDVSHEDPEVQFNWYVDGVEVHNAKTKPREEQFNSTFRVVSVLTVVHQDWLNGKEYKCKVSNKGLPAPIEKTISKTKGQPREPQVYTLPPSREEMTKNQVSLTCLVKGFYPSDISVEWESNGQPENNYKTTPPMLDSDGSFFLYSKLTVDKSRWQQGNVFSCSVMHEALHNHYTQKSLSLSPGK
From the text: as §1, §2, §3

BAv66-Ig = molecular target: T5, BAv66-Ig (human, UniProt P01859-1 99-326 = IgG part); assay: BIACORE SPR
T5 construct: domain: Fc; also called Variant BAv66-Ig
T5 sequence (P01859 other isoform, or with tags, fused parts or gaps limits assumed): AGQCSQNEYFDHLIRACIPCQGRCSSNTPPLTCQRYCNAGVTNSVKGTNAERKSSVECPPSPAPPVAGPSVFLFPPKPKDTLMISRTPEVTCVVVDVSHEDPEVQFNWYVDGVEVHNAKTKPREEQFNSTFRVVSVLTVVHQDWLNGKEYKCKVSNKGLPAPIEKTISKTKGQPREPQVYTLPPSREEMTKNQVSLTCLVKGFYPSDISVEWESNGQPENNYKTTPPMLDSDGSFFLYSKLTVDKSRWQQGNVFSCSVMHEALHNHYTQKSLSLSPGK
From the text: as §1, §2, §3

Variant BAv8-9-Ig = molecular target: T6, Variant BAv8-9-Ig (human, UniProt P01859-1 99-326 = IgG part); assay: BIACORE SPR
T6 construct: domain: Fc; also called Variant 8-9-Ig; BAv8-9-PIg18
T6 sequence (P01859 other isoform, or with tags, fused parts or gaps mutant limits assumed): as the sequence (P01859 other isoform, or with tags, fused parts or gaps limits assumed) above, with I14L, G22L counted along it
From the text: as §1, §2, §3

Variant 50238475-Ig = molecular target: T7, Variant 50238475-Ig (human, UniProt P01859-1 99-326 = IgG part); assay: BIACORE SPR
T7 construct: domain: Fc; also called Parent 9; Variant 50238475-PIg18
T7 sequence (P01859 other isoform, or with tags, fused parts or gaps mutant limits assumed): as the sequence (P01859 other isoform, or with tags, fused parts or gaps limits assumed) above, with F10Y, P19S, G22I, T28N, L31P, T32I counted along it
From the text: as §1, §2, §3

Variant BAv9-5-Ig = molecular target: T8, Variant BAv9-5-Ig (human, UniProt P01859-1 99-326 = IgG part); assay: BIACORE SPR
T8 construct: domain: Fc; also called Variant 9-5-Ig; BAv9-5-PIg18
T8 sequence (P01859 other isoform, or with tags, fused parts or gaps mutant limits assumed): as the sequence (P01859 other isoform, or with tags, fused parts or gaps limits assumed) above, with H12R, I14V, G22L counted along it
From the text: as §1, §2, §3

Variant BAv8-10-Ig = molecular target: T9, Variant BAv8-10-Ig (human, UniProt P01859-1 99-326 = IgG part); assay: BIACORE SPR
T9 construct: domain: Fc; also called Variant 8-10-Ig; BAv8-10-PIg18
T9 sequence (P01859 other isoform, or with tags, fused parts or gaps mutant limits assumed): as the sequence (P01859 other isoform, or with tags, fused parts or gaps limits assumed) above, with I14L, G22V counted along it
From the text: as §1, §2, §3

FLAG-tagged human BAFF [1] = molecular target: T10, FLAG-tagged human BAFF (human, UniProt Q9Y275 134-285, limits assumed); assay: BIACORE SPR; NB = No binding
T10 construct: used in BIACORE (Ex. 9) and KINEXA (Ex. 11); also called huBAFF
Method: (§4) For human BAFF, cynomolgus monkey APRIL, and mouse APRIL measurements, mouse monoclonal antibody (IgG1) anti-FLAG M2 (Sigma Aldrich, Cat. No. F1804) was immobilized on CM3 sensor chips (GE Healthcare, Cat. No. BR-1005-41) according to the manufacturer's protocol. Antibody was diluted to 30 μg/ml in immobilization buffer (10 mM pH 5±0.20; GE Healthcare; GE Healthcare, Catalog No. BR-1003-51). […] Unreacted sites were quenched with 35 μl of 1M ethanolamine-HCl, pH 8.5 (GE Healthcare, GE Healthcare, Cat. No. BR-1000-50). This procedure typically yielded 3,000-4,000 response units (RU) of coupled antibody.
as §2
(§5) Using available information from the structures and published literature, several residues in BAv8-10 were targeted for substitution with conserved as well as non-conserved residues and their effect on BAFF and APRIL binding was assessed by BIACORE.

[2] = molecular target: T11, FLAG-tagged cynomolgous APRIL (cynomolgus monkey, UniProt A0ACM8R0G4 110-250 (rhesus entry)); assay: BIACORE SPR; NB = No binding
T11 construct: FLAG-tagged, expressed with TPA signal peptide; also called cyAPRIL
T11 sequence: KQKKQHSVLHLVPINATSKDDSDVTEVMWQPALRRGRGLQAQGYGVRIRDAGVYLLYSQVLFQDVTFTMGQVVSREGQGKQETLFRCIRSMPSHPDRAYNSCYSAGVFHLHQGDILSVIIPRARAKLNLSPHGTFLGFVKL
Method: as §4, §2, §5

FLAG-tagged human BAFF [3] = molecular target: T10, FLAG-tagged human BAFF; assay: KinExA
Method: (§6) Equilibrium measurements were performed using FLAG-tagged, recombinant huBAFF and huAPRIL ligands. Fixed ligand concentrations of human BAFF or human APRIL were incubated with serial dilutions of the variant BCMA ECD-Ig fusion polypeptides, and free ligand was detected in a KINEXA 3200 Instrument. variant BCMA ECD-Ig fusion polypeptides were first diluted in equilibration buffer (1×PBS, pH 7.4, 1 mg/ml BSA) to a range of concentrations from 10 nM to 100 fM. The linear portion of the dilution series was typically 2-fold. Ligands were diluted in equilibration buffer to fixed concentrations ranging from 5 to 20 pM and then incubated with the variant BCMA-Ig dilutions in total reaction volumes ranging from 4.5 to 15 ml. Samples were incubated at room temperature for 48-72 hours to reach equilibrium. For each data point, a fresh column of 850 μl of bead slurry coated with Variant BAv-238475-Ig was introduced into the KINEXA flow cell. Equilibrated samples ranging from 1 to 5 ml reaction volume were injected at a flow rate of 0.25 ml/min. […] The DyLight 649 fluorescent signal was detected using the red filter set (620/30 nanometer excitation filter, 670/40 nanometer emission filter, 645 nanometer dichroic filter) on the KinExA instrument and converted to a voltage signal that was directly proportional to the concentration of free ligand in the equilibrated sample.
(§7) The various fusion proteins described above were expressed and purified as described previously (Examples 2 and 3 for the CET1019AS based plasmids and Examples 7 and 8 for the pcDNA based plasmids). […] The BAv9-1-Ig Fc proteins typically exist in solution as a dimeric fusion protein. The purified fusion proteins were assayed for binding activity using BIACORE (Example 9) and KINEXA (Example 11) assays.

[4] = molecular target: T12, FLAG-tagged recombinant human APRIL (human, UniProt O75888 105-250); assay: KinExA
T12 construct: KINEXA ligand; also called huAPRIL
T12 sequence: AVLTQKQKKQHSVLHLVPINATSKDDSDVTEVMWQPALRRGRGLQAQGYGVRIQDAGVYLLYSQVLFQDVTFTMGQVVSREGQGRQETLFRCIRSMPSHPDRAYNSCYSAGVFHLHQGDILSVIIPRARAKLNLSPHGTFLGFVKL
Method: as §6, §7

FLAG-tagged human BAFF [5] = molecular target: T10, FLAG-tagged human BAFF; assay: KinExA; remark: listed apart in the source
Method: as §6
(§8) The standard kinetic exclusion assays and data analyses described above were performed on protein preparations of various variant BCMA ECD-Ig fusion polypeptides, as well as Z-TACI-Ig and [S40G]huBCMA ECD-Ig fusion polypeptides. FIG. 8A, FIG. 8B, and Table 4 summarize the binding data for representative variant BCMA ECD-Ig polypeptides and controls in molar concentrations of huBAFF or huAPRIL determined by KINEXA binding assays.

[6] = molecular target: T12, FLAG-tagged recombinant human APRIL; assay: KinExA; remark: listed apart in the source
Method: as §6, §8

FLAG-tagged human BAFF [7] = molecular target: T10, FLAG-tagged human BAFF; assay: BIACORE SPR
Method: as §4, §2, §7

[8] = molecular target: T11, FLAG-tagged cynomolgous APRIL; assay: BIACORE SPR
Method: as §4, §2, §7

FLAG-tagged human BAFF [9] = molecular target: T10, FLAG-tagged human BAFF; assay: KinExA; remark: listed apart in the source
Method: as §6
(§9) Table 5 provides the selectivities of exemplary variant BCMA polypeptides with respect to BAFF and APRIL.

[10] = molecular target: T12, FLAG-tagged recombinant human APRIL; assay: KinExA; remark: listed apart in the source
Method: as §6, §9

- binding result (FLAG-tagged human BAFF [1]): no binding (tested: 150 nM)
- binding result [2]: no binding (tested: 150 nM)
B4: BAv68-Ig (Fc fusion)
chain: AGQCSQNEYFDSLIRACQPCQVRCSSNTPPLTCQRYCNAGVTNSVKGTNA
notes: not shown: PIg18: human IgG2 Fc, Ser at Fc positions 4, 5, 11 (native Cys)

- binding result (FLAG-tagged human BAFF [1]): no binding (tested: 150 nM)
- binding result [2]: no binding (tested: 150 nM)
B5: BAv76-Ig (Fc fusion)
chain: B4 chain with S12H, Q18I, R23T
notes: as for B4

Further lines, the binder ahead of its results:

B1: 6HIS-tagged murine BAFF (ligand, mouse, UniProt Q9WU72 127-309, looked up)
chain: AFQGPEETEQDVDLSAPPAPCLPGCRHSQHDDNGMNLRNIIQDCLQLIADSDTPTIRKGTYTFVPWLLSFKRGNALEEKENKIVVRQTGYFFIYSQVLYTDPIFAMGHVIQRKKVHVFGDELSLVTLFRCIQNMPKTLPNNSCYSAGIARLEEGDEIQLAIPRENAQISRNGDDTFFGALKLL
notes: also called mBAFF; muBAFF
- Kd (Variant BAv9-1-Ig): 15 pM
- Kd (Variant BAv11-6-Ig): 18.1 pM
- Kd (Variant BAv1-12-Ig): 33.9 pM
- Kd (Variant BAv3-10-Ig): 14.9 pM
- Kd (BAv66-Ig): 62.3 pM
- Kd (Variant BAv8-9-Ig): 14.9 pM
- Kd (Variant 50238475-Ig): 26.4 pM
- Kd (Variant BAv9-5-Ig): 21.6 pM
- Kd (Variant BAv8-10-Ig): 17.1 pM

B2: BAv54-Ig (Fc fusion)
chain: B4 chain with S12H, I14S, Q18I
notes: as for B4
- binding result (FLAG-tagged human BAFF [1]): no binding (tested: 150 nM)
- binding result [2]: no binding (tested: 150 nM)

B3: BAv83-Ig (Fc fusion)
chain: B4 chain with S12P, I14V, Q18I, V22I
notes: also called BAv83 (2)-Ig; BAv83-pIg18; not shown: PIg18: human IgG2 Fc, Ser at Fc positions 4, 5, 11 (native Cys)
- Kd (FLAG-tagged human BAFF [3]): 0.254 pM
- Kd [4]: 114 pM
- Kd (FLAG-tagged human BAFF [5]): 0.254 pM
- fold improvement over control (FLAG-tagged human BAFF [5]): 890 fold
- Kd [6]: 114 pM
- fold improvement over control [6]: 0.0014 fold
- Kd (FLAG-tagged human BAFF [7]): 8.09 pM
- Kd [8]: 707 pM
- Selectivity for huBAFF (KD APRIL/KD BAFF) (FLAG-tagged human BAFF [9]): 449 ratio
- Selectivity for huAPRIL (KD BAFF/KD APRIL) [10]: 0.002 ratio
